Test results reported in patent US11479601B2, “Antibodies specific to Sonic Hedgehog and method of use thereof” (The Regents of the University of California, priority 2016, dated 2022).

What was measured:
Shh protein = assay: Ex vivo Shh staining of excised A549 xenograft tumors; assay type: in vivo, mice
Method: The in vivo effect of the C-terminal Shh antibodies were tested using the A549 cell subcutaneous xenograft tumor model in mice, as described in Example 1. After xenograft formation, animals were intra-tumor injected with a C terminal Shh antibody (2G4 or 2D9; each at 158 μg), or a control solution, 3 times a week for about 3 weeks (at 2-3 day intervals). Tumor volume was determined, as described in Example 1, every 2 days. Weight and size of the excised tumor were determined after the antibody treatment. A portion of the excised tumor was sectioned for immunohistochemical analysis of Shh protein expression, and RNA was extracted from another portion of the excised tumor for analysis of Gli1 expression.
Control IgG and Ab 1C11-2G4-treated A549 tumors harvested from mice were sectioned ([…]) and stained with a commercially available Sonic Hedgehog (Shh) antibody (Abcam 53281, 1:100) post acetone fixation, 0.2% Triton-X 100 permeabilization and serum blocking steps. A FITC-conjugated secondary antibody (1:1000) and […] DAPI (Vector Laboratories) mounting medium were used to stain sections prior to imaging at 20× magnification using a Zeiss Axiolmager 2 fluorescence microscope. Captured images were processed via ImageJ software (available at https://imagej.nih.gov/ij/download.html) and representative images are presented.
To assess the effects of antibody administration on hedgehog epitope occupancy, tumors were sectioned and stained with a commercial antibody specific for sonic hedgehog (Shh). […] Confirmatory results were observed when ground up permeabilized tumor cells were labeled with the commercially available Shh antibody and assessed using flow cytometry; 1C11-2G4-treated tumors (20%-Shh-labeled) contrasted with IgG controls (80%-Shh-labeled) (FIG. 46B).

[1] = target: T1, full-length Shh polypeptide (Homo sapiens, UniProt Q15465); assay: Flow cytometry: binding of C-terminal Shh antibodies to full-length Shh expressed in transfected cells; conditions: antibody at 1:10 (Commercial at 1:50)
T1 construct: Expression of full-length Shh polypeptide in transfected cells; expressed in transfected cells; pCMV-Shh plasmid (Origene)
Method: FACS (1:40). The secondary antibody was a donkey anti-mouse FITC-linked antibody (ab97029, 1:100, Abcam). For cell analysis after treatment assays (chemotherapy or GDC0449), a dead cell marker (SytoxRed, Invitrogen) was also used. For human fresh samples, an anti-CD45 APC-linked antibody (ab28106, 1:100, Abcam), and a dead cells marker (SytoxRed, Invitrogen) were added. For staining of stable transfected cell lines, mouse anti-HA antibody (Abcam, 1:100) and rabbit anti-FLAG antibody (Cell Signaling; 1:400) were used. Corresponding secondary antibodies were donkey anti-mouse AlexaFluor647 (Invitrogen, 1:1000) and donkey anti-rabbit AlexFluor594 (Invitrogen, 1:1000) antibodies. Flow cytometry analyses were performed on AccuriC6 flow cytometer (BD Biosciences), and FACS on FACSAria II (BD Biosciences). Flow analyses were based at least on 200,000 cells, and each test was made at least in triplicate. For all experiments, a negative control with cells processed without primary antibody was used. […]
Expression of full-length Shh polypeptide in transfected cells increased the percentage of cells labeled with the Shh antibodies produced by two of the subclones (2D9 and 2G4) identified after the screening, compared to the percentage of untransfected cells labeled by the same antibodies, as measured by flow cytometry (Table 3).

Shh = assay: Western blot binding to purified and cell-expressed Shh; parameters: species or system human; conditions: purified Shh and Shh expressed endogenously and/or exogenously in cells
Excerpt: FIGS. 15A and 15B. Antibodies bind target SHh via Western blot. (FIG. 15A) Purified, recombinant human Shh (19.7 kDa, >98% purity by SDS-PAGE) was probed by the indicated antibodies. (FIG. 15B) Cell lysates from HEK-293T cells (PHX—Phoenix cells), with or without exogenous expression of full-length Shh, and A549 cells were probed with the antibodies produced by clones 2G4 and 2D9. Full-length Shh: ˜50 kDa; N-terminal Shh: ˜19 kDa; C-terminal Shh: ˜25 kDa. Sample 2 was lysate from PHX cells transfected with full-length Shh DNA for about 24 hours. The exogenously expressed Shh appears to be cleaved into N-terminal and C-terminal Shh peptides. Both PHX cells and A549 cells endogenously express Shh.

[2] = test system: other lung and pancreatic cancer cell lines; assay: CellTiter-Glo cell viability assay, other cancer cell lines; assay type: cell-based; conditions: 96 hours
Method: Logarithmically growing cells were plated in antibiotic-free medium supplemented with 2% fetal bovine serum at a density of 5,000 cells per well in clear-bottom 96-well plates. The next day cells were treated (triplicates) with increasing doses of in-house therapeutic antibodies (reconstituted in PBS) or PBS controls for 96 hours and subsequently assessed for cell viability by measuring ATP content with CellTiter-Glo Luminescent Cell Viability Assay (Promega). Signal intensity was measured on a Glomax™ 96 Microplate Luminometer (Promega) and percent cell survival was calculated based on the reading of PBS control cells set as 100%.

[3] = test system: A549-derived NSCLC xenografts; assay: Antitumor efficacy in NSCLC A549 xenograft model (8 mg/kg); assay type: in vivo, mice; conditions: 3 times a week for 3 weeks, versus control IgG
Method: 7-week old female nude mice (Jackson Laboratories) were injected with 10×10^6 NSCLC A549 cells in 50% matrigel in the flank region. […] 8 mg/kg therapeutic or control antibodies were administered three times a week for approximately 3 weeks. Tumor volumes were calculated using the formula (V=L×W^2) with recorded caliper measurements. At the end point, tumors were harvested, weighed and imaged. All animal procedures were performed under IACUC-approved protocols and guidelines.

percentage of cells labeled with the Shh antibody (flow cytometry) ([1]; +SHh Full-Length transfection): 2.24% | percentage of cells labeled with the Shh antibody (flow cytometry) ([1]; No transfection): 0.17%
B1: 2G4: purified mouse monoclonal C-terminal Shh antibody from hybridoma sub-clone 2G4 of clone 1C11, IgG1 kappa (antibody, V domains shown)
VH: EVKLVESGGGLVKPGGSLKLSCAASGFTFSSYTMSWVRQTPAKRLEWVATISSGGGNTYYPDSVKGRFTISRDNARNTLYLQMSSLRSEDTAMYYCARDYRSLFAYWGQGTLVTVSA
VL: QIVLTQSPAIMSASPGEKVTITCSASSSVSYMHWFQQKPGTSPKLWIYSTSNLASGVPARFSGSGSGTSYSLTISRMEAEDAATYYCQQRSSYPFTFGSGTKLEIK
cells expressing Shh protein in excised tumor (immunostaining) (Shh protein; intra-tumor antibody 158 μg, compared to control tumor samples): fewer cells expressing Shh protein | number of Shh-labeled cells in permeabilized tumor sections (immunofluorescence) (Shh protein; tumors after 8 mg/kg treatment, versus IgG controls): significant reduction in the number of Shh-labeled cells | Shh-labeled cells in ground up permeabilized tumor cells (flow cytometry, commercial Shh antibody) (Shh protein; tumors after 8 mg/kg treatment, IgG controls 80%): 20% | binding to Shh by Western blot (Shh): bound to purified Shh | growth of other lung and pancreatic cancer cell lines [2]: inhibited the growth | tumor volume [3]: significant reduction in tumor volume | tumor weight of harvested tumors [3]: decrease in tumor weight
